In patent CN114935649A (dated 2022) one finds Kd data, which are given here for one molecule.

The assay concerns the target T1, HPV6和HPV11的共同抗原表位肽 (SEQ ID NO:1) (HPV6 and HPV11).
T1 construct: also called 序列1的免疫抗原肽; HPV6和HPV11高免疫原性抗原肽
T1 peptide: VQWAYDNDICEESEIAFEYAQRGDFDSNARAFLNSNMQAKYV
Nature of the assay: SPR (ProteOn XPR36), antigen amine-coupled to GLC chip, antibody as analyte at 18.75-600 nM.

B1: 单克隆抗体7C4c (antibody, V domains shown)
VH: EVQLEESATELARPGASVKLSCKASGYIFSGRWQAWIKQRPGQGLEWIGQELMWQAPHILEDSPGGKATLTADKSSSTAYMQLSSLASEDSAVYYCAGSQKWTACWGLGTTLAVSS
VL: DIVITQRPALMAASPGEKVTITCSTGYYPINQWCSWYQQKSGISPKPWIYINHDKTNGVPARFSGSGSGTSYSLTITSMEAEDAATYYCHSVQSSSCPFGAGTKLELK
As a reminder, the Kd is a measure of binding affinity in units of concentration. High values mean lower affinity, low ones higher affinity. Molecule B1 gave a Kd of 3.24 nM.
